Measurements reported in patent KR20200072008A (dated 2020).

Molecular target: SNAP25 197 from lysate of BoNT/A treated N2-42F cells (mouse, UniProt P60879 1-197)
Test: sandwich ELISA; detection of captured SNAP25 197 from N2-42F lysate

Chain of SNAP25 197 from lysate of BoNT/A treated N2-42F cells (P60879 1-197 limits assumed): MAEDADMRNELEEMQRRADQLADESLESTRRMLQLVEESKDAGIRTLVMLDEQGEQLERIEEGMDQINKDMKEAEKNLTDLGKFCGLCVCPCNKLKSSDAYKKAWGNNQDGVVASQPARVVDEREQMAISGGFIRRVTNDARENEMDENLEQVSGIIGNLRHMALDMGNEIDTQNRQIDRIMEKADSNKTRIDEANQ

B1: C16 IgG-HRP 접합체 (antibody, V domains shown)
VH: EVQLQQSGAELARPGASVQMSCKAFGYTFTNYTMHWVRQRPGQGLEWIGFINPSSDYTNYNQKFKDKATLSADKSSSTAYMQLSSLTSEDSAVYYCARRIFYNGRTYAAMDYWGQGTSVTVSS
VL: DIVMTQSPASLAVSLGQRATISCRASKSVSSSGYSYMHWYQQKPGQPPKLLIYLASNLESGVPARFSGSGSGTDFTLNIHPVEEEDAATYYCQHSRELPLTFGAGTKLELK
binding result: binds
